# Type: in vitro ADME, human
# Description: Human blood samples were centrifuged with a Heraeus Labofuge 6000 centrifuge at 3000g for 10 min (Heraeus, Hanau, Germany). Radioactivity readings for serum stability studies were taken with a Capintec CRC-35R dose calibrator (Capintec, New Jersey, USA) and were measured in MBq. Centrifugation of radioactive compounds was undertaken using an Eppendorf 5415 D centrifuge (Eppendorf, Hamburg, Germany). Partition coefficient data were collected with a PerkinElmer, Wizard 1470 (PerkinElmer, Massachusetts, USA) automatic γ counter, which measured the radioactive decay of each sample in counts per minute (cpm).
# For serum stability studies, blood from a healthy person (20 mL) was centrifuged (10 min, 3000 rpm) to separate blood plasma and red blood cells. The plasma was transferred to a separate vial and the red blood cells were discarded. An aliquot of plasma (0.6 mL) was added to labeled compound, [^99mTc(HL^3(Tyr^3-Oct))2]^+ (0.15 mL), the radioactivity was monitored and the mixture was then incubated at 37 °C. […] The radioactivity of the supernatant and pellet was recorded. The supernatant (20 μL) was analyzed by analytical RP-HPLC (Column 7, System C) for UV and radioactivity analysis and the pellet were washed with acetonitrile (3 × 0.1 mL), and radioactivity levels were again recorded (radioactivity levels of the pellet were negligible).
structure (smiles),measurement,value
"C[C@@H](O)[C@H](NC(=O)[C@@H]1CSSC[C@H](NC(=O)[C@@H](Cc2ccccc2)NC(=O)c2ccc(NNC(=S)Nc3ccccc3)nc2)C(=O)N[C@@H](Cc2ccc(O)cc2)C(=O)N[C@H](Cc2c[nH]c3ccccc23)C(=O)N[C@@H](CCCCN)C(=O)N[C@@H]([C@@H](C)O)C(=O)N1)C(=O)O (99mTc complex, metal not drawn) [[^99mTcO(HL^3(Tyr^3-Oct))2]^+]",degradation products in human plasma,< 5%
same,radioactivity levels of the pellet (precipitated serum proteins),negligible
